Data published in the supplement of paper PMC10567573.

B1: YPEL3 (parent)
chain: SKPKTFQAYLDDCHRRYSCAHCRA

Variants of: B1
Assay: protein stability index of a GFP-peptide fusion (GPS, HEK-293T) (PSI 1-6); higher = more stable
Settings: c terminus: a fixed tail appended
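Further: lentivirally expressed fusions sorted by FACS into six bins by GFP to DsRed ratio, PSI derived from sequencing read proportions per bin multiplied by bin number.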

Variant | protein stability index
SKPKTFEAYLDDCHRRYSCAHCRA [Q7E] | 2.16
LKPKTFQAYLDDCHRRYSCAHCRA [S1L] | 3.27
SKPKTFQAYLDDCHRMYSCAHCRA [R16M] | 1.88
SKRKTFQAYLDDCHRRYSCAHCRA [P3R] | 2.05
SRPKTFQAYLDDCHRRYSCAHCRA [K2R] | 1.89
SKPKTFQAYLDDCHRRMSCAHCRA [Y17M] | 1.64
SKPKTFQAYLDDCHRVYSCAHCRA [R16V] | 2.34
SKPKTFQAYLDDCHRRYSGAHCRA [C19G] | 2.68
SKPKTFQAYLDDCHRRYSCAHYRA [C22Y] | 2.17
CKPKTFQAYLDDCHRRYSCAHCRA [S1C] | 2.29
SKPKTFQAYLDDRHRRYSCAHCRA [C13R] | 2.19
SKPKTFQAYLDDCHRRYSCFHCRA [A20F] | 2.22
SKPKTFQAYLDDCHRRYSCAHCRP [A24P] | 2.24
SKPKTFQAYLDDCHRRRSCAHCRA [Y17R] | 2.79
SKPKLFQAYLDDCHRRYSCAHCRA [T5L] | 2.37
SKPKTFQACLDDCHRRYSCAHCRA [Y9C] | 2.33
SKPKTFQAYLDDCSRRYSCAHCRA [H14S] | 2.06
SKPKTFQAYLDDCCRRYSCAHCRA [H14C] | 2.28
SVPKTFQAYLDDCHRRYSCAHCRA [K2V] | 2.22
SKPTTFQAYLDDCHRRYSCAHCRA [K4T] | 1.74
SKPKTFQAYLDDCHRRYSCAHKRA [C22K] | 2.86
SKPKTFQAYLDDCHRRLSCAHCRA [Y17L] | 2
SKPKTFQAYLDDAHRRYSCAHCRA [C13A] | 1.8
SKPKTFQYYLDDCHRRYSCAHCRA [A8Y] | 2.02

Variant | protein stability index
SKPKTFQAYLDDCHRRYSCAHCFA [R23F] | 2.61
SKPKTFQAYLDDCHVRYSCAHCRA [R15V] | 1.57
SKPKTFQAYLDDCHRRYSCAHCRQ [A24Q] | 2.59
SKPKTFQAYLDDCHERYSCAHCRA [R15E] | 3.59
EKPKTFQAYLDDCHRRYSCAHCRA [S1E] | 1.52
SKPKTFQAYLDDCHHRYSCAHCRA [R15H] | 2.72
SKPKTFQAYHDDCHRRYSCAHCRA [L10H] | 3.32
SKAKTFQAYLDDCHRRYSCAHCRA [P3A] | 1.66
SKPKNFQAYLDDCHRRYSCAHCRA [T5N] | 2.53
SKPKTFQAYLDDCHRRYDCAHCRA [S18D] | 1.5
SKPKTFQAYLDDCHRRYSCTHCRA [A20T] | 2.29
SKPKTFQIYLDDCHRRYSCAHCRA [A8I] | 1.81
SKEKTFQAYLDDCHRRYSCAHCRA [P3E] | 2.31
SKPKTFQAGLDDCHRRYSCAHCRA [Y9G] | 2.85
SKPKTFQAYLDDCHRRYSWAHCRA [C19W] | 1.66
SKPKTFQAYLDDCHRRYSCSHCRA [A20S] | 1.46
SKPKTFQAYLDDCHRRYKCAHCRA [S18K] | 2.01
SKPKTFQWYLDDCHRRYSCAHCRA [A8W] | 2.09
SKPKTFQAYLDCCHRRYSCAHCRA [D12C] | 2.74
SKVKTFQAYLDDCHRRYSCAHCRA [P3V] | 2
SKPKTFQAYLDDCHRRYSPAHCRA [C19P] | 2.85
SKPKTFQARLDDCHRRYSCAHCRA [Y9R] | 1.94
SKPKTFQAYLDGCHRRYSCAHCRA [D12G] | 2.64
